The source of these data is publication PMC9482650, “Quantitative fragmentomics allow affinity mapping of interactomes” (Nature Communications, 2022).

Targets include DLG2_2, Q15700; GORASP2, Q9H8Y8; IL16_1, Q14005; IL16_4, Q14005; MAGI1_2, Q96QZ7; NHERF2_2, Q15599; NOS1, P29475; SCRIB_1, Q14160; CASK, O14936; FRMPD2_2, Q68DX3; GRASP, Q7Z6J2; LIMK2, P53671; PTPN3, P26045.
Assay in all cases: holdup assay
Common to all, as to parameters: key: below the threshold = too weak to quantify, mostly under pKd 3.1 to 4

In a further assay the target is T1, DFNB31_1, Q9P202.
T1 sequence (Q9P202 135-233, limits assumed, looked up): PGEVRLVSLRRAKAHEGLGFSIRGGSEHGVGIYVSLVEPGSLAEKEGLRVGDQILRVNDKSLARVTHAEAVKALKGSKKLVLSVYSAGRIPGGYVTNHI

Another assay concerns the target T2, DVL3, Q92997.
T2 sequence (Q92997 244-331, limits assumed, looked up): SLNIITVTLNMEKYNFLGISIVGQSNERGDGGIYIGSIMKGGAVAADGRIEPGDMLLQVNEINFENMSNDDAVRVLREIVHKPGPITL

The target of a further assay is T3, GRIP1_7, Q9Y3R0.
T3 sequence (Q9Y3R0 999-1096, limits assumed, looked up): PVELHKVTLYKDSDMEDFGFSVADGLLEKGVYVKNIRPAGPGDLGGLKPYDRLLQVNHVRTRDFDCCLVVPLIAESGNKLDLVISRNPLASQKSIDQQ

A further assay has as its target T4, LRRC7, Q96NW7.
T4 sequence (Q96NW7 1440-1537, limits assumed, looked up): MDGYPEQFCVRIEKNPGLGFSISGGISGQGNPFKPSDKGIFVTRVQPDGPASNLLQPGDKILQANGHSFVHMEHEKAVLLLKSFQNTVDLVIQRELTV

A further assay deals with T5, CARD11, Q9BXL7.
T5 sequence (Q9BXL7 662-765, limits assumed, looked up): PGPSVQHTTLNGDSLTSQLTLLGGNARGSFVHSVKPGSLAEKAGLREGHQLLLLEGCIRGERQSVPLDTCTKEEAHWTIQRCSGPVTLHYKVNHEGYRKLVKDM
Conditions: plain residues with an end cap or a label only (N-terminal biotin on a linker: ttds).

The next assay deals with DLG2_3, Q15700. The conditions noted are these: plain residues with an end cap or a label only (N-terminal biotin on a linker: ttds).
Another assay has as its target FRMPD4, Q14CM0. Conditions: plain residues with an end cap or a label only (N-terminal biotin on a linker: ttds).
For another assay, the target named is Inadl_1, Q8NI35. Conditions: plain residues with an end cap or a label only (N-terminal biotin on a linker: ttds).
In the next assay the target is Inadl_4, Q8NI35. The conditions noted are these: plain residues with an end cap or a label only (N-terminal biotin on a linker: ttds).
The next assay addresses MAGI2_2, Q86UL8. Conditions: plain residues with an end cap or a label only (N-terminal biotin on a linker: ttds).
In the next assay the target is MAST1, Q9Y2H9. The conditions noted are these: plain residues with an end cap or a label only (N-terminal biotin on a linker: ttds).
Another assay deals with MAST2, Q6P0Q8. Conditions: plain residues with an end cap or a label only (N-terminal biotin on a linker: ttds).
A further assay addresses T6, MPDZ_12, O75970.
T6 sequence (O75970 1857-1958, limits assumed, looked up): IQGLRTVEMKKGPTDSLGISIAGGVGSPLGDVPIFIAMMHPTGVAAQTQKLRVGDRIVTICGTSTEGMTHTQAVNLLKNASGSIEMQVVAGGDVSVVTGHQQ

In the next assay the target is T7, MPP7, Q5T2T1.
T7 sequence (Q5T2T1 134-230, limits assumed, looked up): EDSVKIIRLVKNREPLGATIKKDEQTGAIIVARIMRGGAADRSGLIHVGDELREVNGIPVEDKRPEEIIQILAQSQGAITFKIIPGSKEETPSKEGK
The conditions noted are these: plain residues with an end cap or a label only (N-terminal biotin on a linker: ttds).

In another assay the target is T8, PCLO, Q9Y6V0.
T8 sequence (Q9Y6V0 4491-4600, limits assumed, looked up): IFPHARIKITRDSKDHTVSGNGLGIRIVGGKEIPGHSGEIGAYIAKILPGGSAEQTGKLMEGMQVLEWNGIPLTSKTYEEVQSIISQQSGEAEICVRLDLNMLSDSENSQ
The conditions noted are these: plain residues with an end cap or a label only (N-terminal biotin on a linker: ttds).

Another assay concerns the target T9, RHPN1, Q8TCX5.
T9 sequence (Q8TCX5 508-602, limits assumed, looked up): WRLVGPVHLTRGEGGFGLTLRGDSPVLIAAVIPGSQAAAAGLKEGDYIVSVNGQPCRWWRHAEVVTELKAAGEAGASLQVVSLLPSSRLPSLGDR
Conditions: plain residues with an end cap or a label only (N-terminal biotin on a linker: ttds).

A further assay concerns the target TJP1_3, Q07157. Conditions: plain residues with an end cap or a label only (N-terminal biotin on a linker: ttds).
The mark [1] stands for this setting: plain residues with an end cap or a label only (N-terminal biotin on a linker: ado-ado).
[2] abbreviates: plain residues with an end cap or a label only (N-terminal biotin on a linker: ttds).

NOS1, P29475, sequence (P29475 9-101): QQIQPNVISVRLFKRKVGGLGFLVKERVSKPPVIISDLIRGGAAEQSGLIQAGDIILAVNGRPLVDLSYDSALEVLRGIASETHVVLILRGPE
MAST2, Q6P0Q8, sequence (Q6P0Q8 1099-1202): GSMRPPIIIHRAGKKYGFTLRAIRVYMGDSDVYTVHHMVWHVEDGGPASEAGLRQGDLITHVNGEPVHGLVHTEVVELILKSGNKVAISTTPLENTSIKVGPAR
SCRIB_1, Q14160, sequence (Q14160 718-814): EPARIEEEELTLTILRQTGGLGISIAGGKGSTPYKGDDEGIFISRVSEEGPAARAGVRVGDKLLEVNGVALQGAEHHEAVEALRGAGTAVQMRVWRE
MAST1, Q9Y2H9, sequence (Q9Y2H9 962-1065): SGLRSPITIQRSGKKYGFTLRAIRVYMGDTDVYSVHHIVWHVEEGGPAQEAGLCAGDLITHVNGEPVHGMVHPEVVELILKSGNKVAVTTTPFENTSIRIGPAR
NHERF2_2, Q15599, sequence (Q15599 142-238): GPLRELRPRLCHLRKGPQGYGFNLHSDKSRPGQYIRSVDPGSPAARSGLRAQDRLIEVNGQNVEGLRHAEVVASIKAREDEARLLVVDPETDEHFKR
LIMK2, P53671, sequence (P53671 143-248): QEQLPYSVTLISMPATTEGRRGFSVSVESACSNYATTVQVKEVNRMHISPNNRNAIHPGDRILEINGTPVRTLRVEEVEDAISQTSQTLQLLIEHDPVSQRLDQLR
GRASP, Q7Z6J2, sequence (Q7Z6J2 96-193): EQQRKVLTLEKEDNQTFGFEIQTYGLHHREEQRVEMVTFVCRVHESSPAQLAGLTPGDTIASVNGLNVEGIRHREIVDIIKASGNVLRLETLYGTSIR
Inadl_4, Q8NI35, sequence (Q8NI35 547-651): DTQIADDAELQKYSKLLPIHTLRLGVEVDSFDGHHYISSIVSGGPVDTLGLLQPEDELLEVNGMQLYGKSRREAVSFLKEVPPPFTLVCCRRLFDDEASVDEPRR
PTPN3, P26045, sequence (P26045 505-587): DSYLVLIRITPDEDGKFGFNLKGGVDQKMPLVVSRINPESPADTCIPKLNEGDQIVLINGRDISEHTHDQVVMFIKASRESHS
IL16_1, Q14005, sequence (Q14005 210-306): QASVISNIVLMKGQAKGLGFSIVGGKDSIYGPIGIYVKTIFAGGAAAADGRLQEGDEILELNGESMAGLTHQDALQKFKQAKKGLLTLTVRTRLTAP
FRMPD4, Q14CM0, sequence (Q14CM0 67-160): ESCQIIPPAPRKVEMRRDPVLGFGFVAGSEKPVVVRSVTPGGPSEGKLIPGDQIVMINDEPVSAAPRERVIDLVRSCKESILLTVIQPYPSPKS
IL16_4, Q14005, sequence (Q14005 1229-1329): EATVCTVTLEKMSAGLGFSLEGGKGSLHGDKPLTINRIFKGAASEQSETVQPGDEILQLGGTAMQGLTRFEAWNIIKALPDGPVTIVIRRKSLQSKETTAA
TJP1_3, Q07157, sequence (Q07157 416-512): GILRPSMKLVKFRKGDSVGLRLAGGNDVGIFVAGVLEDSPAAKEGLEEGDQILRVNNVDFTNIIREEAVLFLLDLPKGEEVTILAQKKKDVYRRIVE
CASK, O14936, sequence (O14936 487-570): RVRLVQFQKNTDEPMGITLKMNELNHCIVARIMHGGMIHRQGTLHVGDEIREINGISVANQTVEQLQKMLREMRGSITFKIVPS
MAGI2_2, Q86UL8, sequence (Q86UL8 410-522): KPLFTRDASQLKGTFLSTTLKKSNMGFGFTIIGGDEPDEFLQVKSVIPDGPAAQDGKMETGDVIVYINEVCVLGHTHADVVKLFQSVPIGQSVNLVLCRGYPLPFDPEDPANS
MAGI1_2, Q96QZ7, sequence (Q96QZ7 456-580): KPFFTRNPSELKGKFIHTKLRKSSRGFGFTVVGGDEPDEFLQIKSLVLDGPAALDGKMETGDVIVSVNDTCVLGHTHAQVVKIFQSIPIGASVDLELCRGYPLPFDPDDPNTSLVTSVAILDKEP
Inadl_1, Q8NI35, sequence (Q8NI35 113-229): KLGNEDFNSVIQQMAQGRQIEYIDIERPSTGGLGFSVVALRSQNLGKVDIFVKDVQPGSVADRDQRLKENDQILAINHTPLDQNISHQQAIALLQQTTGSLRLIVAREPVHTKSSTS
FRMPD2_2, Q68DX3, sequence (Q68DX3 944-1038): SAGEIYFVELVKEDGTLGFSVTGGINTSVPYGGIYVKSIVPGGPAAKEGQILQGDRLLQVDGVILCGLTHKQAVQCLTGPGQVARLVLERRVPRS

A word on the pKd: it is the negative decadic logarithm of the Kd, by convention in mol/L. As to KSRVAFFEEL [NF2, P35240], the pKd was 3.64 in the assay with DFNB31_1, Q9P202 (setting [1]); 3.51 with DLG2_2, Q15700 (setting [1]); 3.49 in the assay with DVL3, Q92997 (setting [1]); 3.87 in the assay with GORASP2, Q9H8Y8 (setting [1]); 3.49 in the assay with GRIP1_7, Q9Y3R0 (setting [1]); 3.5 in the assay with IL16_1, Q14005 (setting [1]). In addition, the pKd with IL16_4, Q14005 (setting [1]) is 3.68; in the assay with LRRC7, Q96NW7 (setting [1]) it was 3.5; with MAGI1_2, Q96QZ7 (setting [1]), 3.53; with NHERF2_2, Q15599 (setting [1]) it was 3.89; in the assay with NOS1, P29475 (setting [1]) it was 3.58; in the assay with SCRIB_1, Q14160 (setting [1]), 3.64.

With SRPQRTQTQV [HPV67-E6, A4U7F2], the negative logarithm of the Kd (pKd) result in the assay with CARD11, Q9BXL7 is “below the threshold”; with CASK, O14936 (setting [2]) it was “below the threshold”; with DFNB31_1, Q9P202 (setting [2]), “below the threshold”; with DLG2_2, Q15700 (setting [2]), 4.81; with DLG2_3, Q15700, 4.52; with DVL3, Q92997 (setting [2]) it was “below the threshold”. Moreover, the negative logarithm of the Kd (pKd) with FRMPD2_2, Q68DX3 (setting [2]) was 3.53; in the assay with FRMPD4, Q14CM0, “below the threshold”; with GORASP2, Q9H8Y8 (setting [2]) it was “below the threshold”; with GRASP, Q7Z6J2 (setting [2]) it was “below the threshold”; with GRIP1_7, Q9Y3R0 (setting [2]), “below the threshold”; in the assay with IL16_1, Q14005 (setting [2]), “below the threshold”. The pKd result with IL16_4, Q14005 (setting [2]) is “below the threshold”; with Inadl_1, Q8NI35, “below the threshold”; in the assay with Inadl_4, Q8NI35, “below the threshold”; in the assay with LIMK2, P53671 (setting [2]) it was “below the threshold”; with LRRC7, Q96NW7 (setting [2]) it was “below the threshold”; with MAGI1_2, Q96QZ7 (setting [2]), 5.22. Also, the negative-log Kd (pKd) in the assay with MAGI2_2, Q86UL8 was 5.32; with MAST1, Q9Y2H9, 4.47; in the assay with MAST2, Q6P0Q8, 5.27; with MPDZ_12, O75970 (setting [2]), “below the threshold”; with MPP7, Q5T2T1 it was “below the threshold”; with NHERF2_2, Q15599 (setting [2]), “below the threshold”. The pKd with NOS1, P29475 (setting [2]) is 3.81; with PCLO, Q9Y6V0, “below the threshold”; with PTPN3, P26045 (setting [2]), 3.95; with RHPN1, Q8TCX5 it was 3.84; with SCRIB_1, Q14160 (setting [2]) it was “below the threshold”; in the assay with TJP1_3, Q07157, “below the threshold”.

Take RSLEEEESQL [GRASP, Q7Z6J2]: the pKd was 3.81 with CARD11, Q9BXL7; “below the threshold” with CASK, O14936 (setting [2]); 3.86 with DFNB31_1, Q9P202 (setting [2]); “below the threshold” with DLG2_2, Q15700 (setting [2]); “below the threshold” with DLG2_3, Q15700; 3.96 in the assay with DVL3, Q92997 (setting [2]). Also, the pKd entry with FRMPD2_2, Q68DX3 (setting [2]) was “below the threshold”; with FRMPD4, Q14CM0, 4.48; with GORASP2, Q9H8Y8 (setting [2]), “below the threshold”; with GRASP, Q7Z6J2 (setting [2]), 3.99; in the assay with GRIP1_7, Q9Y3R0 (setting [2]) it was “below the threshold”; with IL16_1, Q14005 (setting [2]), “below the threshold”. The pKd was 3.54 in the assay with IL16_4, Q14005 (setting [2]); “below the threshold” with Inadl_1, Q8NI35; 3.83 in the assay with Inadl_4, Q8NI35; “below the threshold” with LIMK2, P53671 (setting [2]); “below the threshold” with LRRC7, Q96NW7 (setting [2]); “below the threshold” in the assay with MAGI1_2, Q96QZ7 (setting [2]). The pKd result with MAGI2_2, Q86UL8 was “below the threshold”; with MAST1, Q9Y2H9, 4.83; with MAST2, Q6P0Q8, 5.6; with MPDZ_12, O75970 (setting [2]), “below the threshold”; with MPP7, Q5T2T1, “below the threshold”; with NHERF2_2, Q15599 (setting [2]) it was 5.07. In addition, the pKd was 3.6 with NOS1, P29475 (setting [2]); 3.73 with PCLO, Q9Y6V0; 4.83 in the assay with PTPN3, P26045 (setting [2]); 4.71 in the assay with RHPN1, Q8TCX5; 3.55 with SCRIB_1, Q14160 (setting [2]); “below the threshold” in the assay with TJP1_3, Q07157.

With KRPEMTSSSV [MUC3B, MUC3A, Q02505;Q9H195], the pKd result with CASK, O14936 (setting [1]) was “below the threshold”; with DFNB31_1, Q9P202 (setting [1]) it was 4.24; with FRMPD2_2, Q68DX3 (setting [1]), “below the threshold”; with GRASP, Q7Z6J2 (setting [1]), 4; with IL16_1, Q14005 (setting [1]) it was 3.94; in the assay with LIMK2, P53671 (setting [1]) it was “below the threshold”. Also, the pKd result was “below the threshold” with MAGI1_2, Q96QZ7 (setting [1]); “below the threshold” with MPDZ_12, O75970 (setting [1]); “below the threshold” with NOS1, P29475 (setting [1]); 4.55 with PTPN3, P26045 (setting [1]); “below the threshold” with SCRIB_1, Q14160 (setting [1]).

For the molecule SVWLRKETRV [CYSLTR2, Q9NS75], the negative-log Kd (pKd) result was “below the threshold” in the assay with CARD11, Q9BXL7; “below the threshold” in the assay with CASK, O14936 (setting [2]); 4.03 with DFNB31_1, Q9P202 (setting [2]); 5.24 in the assay with DLG2_2, Q15700 (setting [2]); 5.4 with DLG2_3, Q15700; “below the threshold” in the assay with DVL3, Q92997 (setting [2]). Moreover, the pKd was 3.6 with FRMPD2_2, Q68DX3 (setting [2]); “below the threshold” in the assay with FRMPD4, Q14CM0; 4.01 with GORASP2, Q9H8Y8 (setting [2]); “below the threshold” with GRASP, Q7Z6J2 (setting [2]); 3.77 with GRIP1_7, Q9Y3R0 (setting [2]); 3.92 with IL16_1, Q14005 (setting [2]). The pKd result was “below the threshold” in the assay with IL16_4, Q14005 (setting [2]); “below the threshold” with Inadl_1, Q8NI35; “below the threshold” with Inadl_4, Q8NI35; “below the threshold” with LIMK2, P53671 (setting [2]); 3.65 with LRRC7, Q96NW7 (setting [2]); 5.63 with MAGI1_2, Q96QZ7 (setting [2]). Moreover, the pKd with MAGI2_2, Q86UL8 is 5.68; with MAST1, Q9Y2H9 it was 5.29; in the assay with MAST2, Q6P0Q8 it was 5.27; with MPDZ_12, O75970 (setting [2]), “below the threshold”; with MPP7, Q5T2T1 it was “below the threshold”; in the assay with NHERF2_2, Q15599 (setting [2]), 3.78. For the same molecule, the negative-log Kd (pKd) was 3.85 in the assay with NOS1, P29475 (setting [2]); “below the threshold” in the assay with PCLO, Q9Y6V0; 4.68 in the assay with PTPN3, P26045 (setting [2]); 4.08 in the assay with RHPN1, Q8TCX5; 4.28 with SCRIB_1, Q14160 (setting [2]); “below the threshold” with TJP1_3, Q07157.
